Results published in the supplement of paper PMC12042874.
± gives the uncertainty stated by the source.

assay: amyloid nucleation score (Sup35N fusion, yeast selection) (log enrichment); library NNK3; higher = more nucleation; inactive = no reads after selection
Procedure, shortened: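 Growth for 7 days at 30°C on medium lacking adenine and uracil followed a 24-hour induction with 100 μM copper sulfate of psi-negative yeast expressing peptides of 20 random codons fused to Sup35N. Input and output plasmid inserts were sequenced with Illumina, and sequences with under 100 input reads were excluded. Nucleation score is the DiMSum log enrichment of output over input reads, centred on the mode score of non-aggregating sequences.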

Substance	amyloid nucleation score
LNNSTSCEVGKNVCISFKWA	2.22 ± 0.089
LCFNCGVFCFFFRVGETTNW	2.84 ± 0.056
NWMDDWSYVVVSF	-1.13 ± 2.5
ILFSQETRYELSL	inactive
LWVYAPFDSK	inactive
GWLLRCVSTLGGLKTLLC	inactive
HMVSTDVTENLWFRQ	inactive
YYYSMVTTLRGAISILRNPA	inactive
HIWAHAFISLVLWLSPLSVS	inactive
DNSGVSVQLRKVSESGSA	inactive
YARHSLDMRTSRDLTTLLGL	inactive
GRSSCLSTFC	inactive
VKHQVDCLIVVI	inactive
FDNFFYWSRKRD	inactive
REVMWKICFRKINYVGYSGK	inactive
VNYSLLRVNMFKYGSSYPIP	inactive
PVLGYAECIYKMYKSSQVSW	inactive
LAKDVFIC	inactive
LFNNFYLVSFGWLDGG	2.31 ± 0.068
RLAKSMH	inactive
ILWDKRRSYYCIMGAIYIVR	inactive
NISVLIRCLWNFSEGKAFLA	inactive
NFTRC	inactive

Substance	amyloid nucleation score
FLTDASWGSIFWKFLRASFV	0.621 ± 0.14
MRLMEQYFICCVM	1.06 ± 0.17
YVFKMWLGPSSLIEFDLKRH	2.88 ± 0.062
GFSNFQEVVGILYCQFWVLL	1.33 ± 0.075
CDVFVSY	inactive
SVPMVLFRASLVMYGLMLSQ	0.835 ± 0.12
YFKNGNALCKAFKKRISRKD	inactive
NLTLVVHYISRQSISEHYLR	inactive
FNKLVWNHLSGCV	inactive
DIYFCYNIDFLYRVTLRQLR	inactive
GCGRTEMNVSMSGPSRMVDL	inactive
INNLYDVQRGIADFWKSWLV	inactive
IAWRQAGDFITLNLSIWMRL	inactive
MISWLNQKYHVLNQNFIYG	inactive
PFRVLLQGIKDAPSKFIDSG	inactive
VLADCWRSGIHWIGHTYLIN	inactive
IDHKCCNNTVS	inactive
CVFCVNRTLLIVWIMVRY	inactive
TASPCFNSYLKNFVLGLPTT	inactive
IDILNG	0.152 ± 0.71
DMACMVFGWE	inactive
TCISFYETVAL	inactive
FTINV	inactive

Substance	amyloid nucleation score
YIYWQRTTSRVLERSVILNV	inactive
VHFKCLRRCVGVIDRCINRH	inactive
NFFSA	-0.51 ± 0.73
RHNARRWCTVSC	inactive
DIVLFLG	inactive
VLASSKGICPMPSTSEFSFH	inactive
HRMCVRRFRVFRESVEEVHF	inactive
LISTNKRHTAWRYCRGIPLE	inactive
RSSKSEGYGFVGVGI	inactive
SRFYSDTQPTCGWKRVESRG	-0.897 ± 2.5
CRYDKSSLDY	inactive
SDTRGVF	inactive
YYPQRAGYRVPVFLWIGNWR	inactive
STSVVELVNLVDDLRLNLSR	inactive
FVSLALGFGILSFYKDRLWD	0.598 ± 0.33
YWVWLGPQNI	0.115 ± 0.41
FHDVMKGGI	inactive
IRRLDEVNEWANSYKLWKKQ	inactive
KSWYEFPKMLRNHRTYNQRL	inactive
FFFLWGAP	inactive
ASKENCLIVFIVYQSIIETC	inactive
YSRGV	inactive
FFKVSPMYY	inactive

Substance	amyloid nucleation score
RISSIAEDSSRAGASEHPGQ	-0.57 ± 1.8
AWVDLVLRGFKGYLTYRSLH	inactive
CSGTSSFRDLTCGCRHCFVG	1.3 ± 0.099
NRSPLCLKC	inactive
HVDTSPSYIPPGIKLVRQRM	-0.528 ± 0.36
RNLYSIRANMWLNRQLRKYS	inactive
HGFFNLWWRARLHLAPLHHH	inactive
NMIKPSFFIIVVVNTQGFDA	2.97 ± 0.063
LLLIGINVKMFWSFRVWLCN	inactive
FGVTTEF	1.23 ± 0.14
FGTVAWPITFIIRMAVGSSC	0.936 ± 0.15
NLLAMRLWQAQSMKRSLGFL	inactive
GRSLCVVCSGLVWLCW	2.19 ± 0.077
THRDYLMVRYCGSCHVEMVS	inactive
TLFQDSLLYVSWRSES	0.118 ± 0.34
SWSANSCFVRIEKISLHNVG	inactive
HGWSS	inactive
CMVSYASDTGGKESELACVV	inactive
MCQKQHQYQVTAIRTYMIRF	inactive
YREREAAR	inactive
RSRNAIVLGACYC	inactive
PKNLFISRLPL	inactive
CIPIMRTPLGTPSN	inactive

Substance	amyloid nucleation score
GSATCAS	inactive
SWTFQHIWVRHSRSPCKAGR	inactive
DSSDVVSVLVLSEMCAALVT	inactive
SLVAFPLFAGCVIW	inactive
VFETEKLSHFKCEVLDCQ	inactive
IDMILC	inactive
YSFDASTYIYVSGRLFNKSV	inactive
FCSLIKYSQNYYNPLAHTVL	inactive
VPVVGISYSYLILWFYLYVG	inactive
SFLDNCPRGNRGQVGSEPVS	inactive
IYILYVMDF	inactive
LREYFMFPRVHNLFNLV	inactive
ITTCLMYHRLCECGSKVLGL	inactive
CEYLGPVYIM	inactive
GVDFEDQPSSQDFLYSARYL	inactive
TISYMWRLNGWRSNRAFGSI	inactive
MMSMNMNLSYCYGFMGSHYS	1.47 ± 0.097
IWWVSK	inactive
VNQVVM	inactive
KLRTSGAILVF	inactive
IDLKY	inactive
NLCRAI	0.256 ± 0.36
TASVRVRFPLSFTPCLEVHP	inactive

Substance	amyloid nucleation score
NMSPGEP	inactive
SLGLNTPAREFYWGCILTFG	inactive
CYPFLWYCPNVCTVVSFDK	2.46 ± 0.062
NWKLYWYNVSCL	1.65 ± 0.067
IAQIFLACRTVT	inactive
GVGNKGSTKNLEQVTASVVV	inactive
CEYCFGMTSLTAWWCYVLRC	inactive
ARDCGRFIFLWWRYSLTKRH	inactive
FRNNRRRAVMCSGFMFRFNF	inactive
YLYSCDSFCFLDPRYMRCPE	inactive
GGKLGTLCSNSRYGSVHMGV	inactive
YWLNK	inactive
TLSVLFSVSAAAFGVHRIQD	1.09 ± 0.21
FLCSTVIISNVLMRPAYYVR	inactive
LRCYDILLDA	inactive
YLNSYQDIYVRCVLELLYSS	inactive
RPPHYQCMCSLVLSSRRNIQ	inactive
IDARRFQGFNISSYMN	0.372 ± 0.28
SKWSTEFLTCHT	inactive
SIYCANQRSLVYHYVLAFTT	inactive
GRPTSRLMSNWTFPSATVSW	inactive
MCTNMSRNQFITDIVLCDRS	inactive
VDRVT	inactive

Substance	amyloid nucleation score
VVHNYEITWYHL	1.99 ± 0.074
LRKRRGPK	inactive
CKLNICRNVEETTIFRLGDV	1.39 ± 0.11
NLHTTEIKFSPLLWKISSTW	0.313 ± 0.34
VPGRVMVLRIWIYRNVQKRG	inactive
RNCVSSGCCRRFSD	inactive
VFSFRTYNLYGEDNEQLLHW	inactive
LSFWVSYLGIVFLQNICEEW	inactive
TFGFRNRYFELLSVVIRHLA	inactive
CYWIASRLFTKLSNYLSISG	inactive
VKKSYWAERGFFGA	inactive
SFRNKLELFQLVCMHNEPGC	inactive
NGLGSTRMNQGHKLVFTNSI	inactive
KPQYENVMCY	inactive
LVLRFTSIDFKLFRRHST	inactive
QDYSELRVSKKKVVRVG	inactive
ERMRLNARFSTHLE	inactive
TLLPLQMFTNHWALMPSSHR	0.125 ± 0.9
NSNGCVQGQRFSWPWVGRLA	inactive
HREPTNSNRMEIELRKSVWR	inactive
RVKVSYASYARK	1.49 ± 0.12
SSFSFYYDFIHS	-0.433 ± 0.88
SILMMGNLFKLLRKF	inactive
